Entries after “also recorded” stand apart in the source; their conditions may differ.
Legend:
[1] = tested on: TLR2, TLR4 and CD14 on THP-1 cells (IL-12p40, TNFα, IL-10 production); assay: Cytokine production by THP-1 cells pre-treated with mAbs to TLR2, TLR4 or CD14 and cultured with M. vaccae derivatives (ELISA); type: cell-based, human; conditions: mAb pre-treatment 60 minutes, 0.32-1000 μg/mL; stimulus 5 μg/mL, 24 hours
Procedure: In subsequent experiments, the effect of antibodies to TLR2, TLR4 and CD14 on the production of IL-12p40, IL-10 and TNF-α in THP-1 cells in response to M. vaccae derivatives was examined as follows.
Prior to culture with M. vaccae derivatives, 50 μL of THP-1 cells in cRPMI-10 were pre-treated in duplicate microplate wells with 50 μL of serially diluted Functional Grade mabs to human TLR2 (clone TL2.1, IgG2a isotype, eBioscience cat. no. 16-9922-82), TLR4 (clone HTA125, IgG2a isotype, eBioscience cat. no. 16-9927-82), or CD14 (clone RM052, IgG2a isotype, Coulter cat. no. IM0643), with a cocktail of all three antibodies or with control mAb (clone AcV1, IgG2a isotype, eBioscience cat. no. 16-4724-85), with each mAb used at a final concentration of 1000 μg/mL, 200 μg/mL, 40 μg/mL, 8.0 μg/mL, 1.60 μg/mL, or 0.32 μg/mL, or with no mAb. Pretreatment of cells with mAbs was for 60 minutes in a water-jacketed, humidified incubator at 37° C. supplied with 5% CO2 in air.
At the end of the 24-hour incubation period, the microplates were centrifuged at 200×g for 5 minutes and the supernatants collected and transferred to a sterile 96-well round-bottom plate.
IL-12p40, TNFα, and IL-10 content in the microculture supernatants was determined by sandwich ELISA using commercially available sets according to the manufacturer's recommendations. […]

[2] = tested on: IFNγ production by lymph node cells; assay: IFNγ production by lymph node cells from GV protein-immunized mice (enzyme-linked immunoassay); type: cell-based, female BALB/cByJ mice; conditions: lymph node cells of mice immunized with the same GV protein
Procedure: (§1) The immunogenicity of Mycobacterium vaccae recombinant proteins (referred to herein as GV recombinant proteins) was tested by injecting female BALB/cByJ mice in each hind foot-pad with 10 μg of recombinant GV proteins emulsified in incomplete Freund's adjuvant (IFA). Control mice received phosphate buffered saline in IFA. The draining popliteal lymph nodes were excised 10 days later and the cells obtained therefrom were stimulated with the immunizing GV protein and assayed for proliferation by measuring the uptake of tritiated thymidine. The amount of interferon gamma (IFNγ) produced and secreted by these cells into the culture supernatants was assayed by standard enzyme-linked immunoassay.

[3] = tested on: CD40, CD80 and CD86 on dendritic cells; type: cell-based, human
[4] = tested on: CD83 and CD80 on purified dendritic cells; assay: Dendritic cell maturation: CD83 and CD80 expression (flow cytometry); type: cell-based; conditions: GV-23 20 μg/ml or LPS 10 μg/ml, 20 hour, mean ± SD (n = 3)
Procedure: The effect of the recombinant M. vaccae protein GV-23 on the maturation and function of dendritic cells was examined as follows.
Purified dendritic cells (5×10^4−10^5 cells/ml) were stimulated with GV-23 (20 μg/ml) or LPS (10 μg/ml) as a positive control. Cells were cultured for 20 hour and then analyzed for CD83 (a maturation marker) and CD80 expression by flow cytometry. Non-stimulated cells were used as a negative control.

[5] = tested on: popliteal lymph node cells; assay: Proliferation of lymph node cells from GV protein-immunized mice; type: cell-based, female BALB/cByJ mice; conditions: lymph node cells of mice immunized with 10 μg of the same GV protein in IFA
Procedure: as §1

[6] = tested on: CD40, CD80 and CD86 on monocytes; assay: CD40, CD80 and CD86 expression on monocytes (3 color flow cytometry); type: cell-based, human; conditions: 20 ug/ml, 48 hours, vs non-stimulated cells
Description: (§2) Stimulated cells were harvested and analyzed for up-regulation of CD40, CD80 and CD86 using 3 color flow cytometric analysis. Tables 16, 17 and 18 show the fold increase in mean fluorescence intensity from control (non-stimulated cells) for dendritic cells, monocytes, and B cells, respectively.

[7] = tested on: IL-1β, TNF-α, IL-12 and IFN-γ production in PBMC; assay: Cytokine production in PBMC from normal donors (ELISA); type: cell-based, human
[8] = tested on: CD69 on αβT cells, γδT cells and NK cells; type: cell-based, human
[9] = tested on: dendritic cells with allogeneic T cells; assay: Dendritic cell mixed lymphocyte reaction (MLR) assay; type: cell-based; conditions: 20 μg/ml for 18-20 hours, then allogeneic T cells
Procedure: The ability of GV-23 to enhance dendritic cell function as antigen presenting cells was determined by mixed lymphocyte reaction (MLR) assay. Purified dendritic cells were cultured in medium alone or with GV-23 (20 μg/ml) for 18-20 hours and then stimulated with allogeneic T cells (2×10^5 cells/well). After 3 days of incubation, (^3H)-thymidine was added. Cells were harvested 1 day later and the uptake of radioactivity was measured.

[10] = tested on: CD40, CD80 and CD86 on B cells; assay: CD40, CD80 and CD86 expression on B cells (3 color flow cytometry); type: cell-based, human; conditions: 20 ug/ml, 48 hours, vs non-stimulated cells
Description: as §2

[11] = Dose of GV protein used in vitro 2 μg/ml
[12] = Dose of GV protein used in vitro 50 μg/ml
[13] = dendritic cells, 20 ug/ml, 48 hours, vs non-stimulated cells

For “TLR2 mAb: Functional Grade mAb to human TLR2, clone TL2.1, IgG2a isotype (eBioscience) [reference compound]”, which “inhibition of M. vaccae-, AVAC- and DD-M. vaccae-induced production of IL-12p40 by THP-1 cells” value [1] is on record?
Its value is “inhibited by TLR2 and CD14 mAbs in a dose-dependent fashion”.

B1: GV-23: recombinant M. vaccae antigen, amino acid sequence SEQ ID NO: 38 (protein, listed as Mycobacterium vaccae)
chain: VIEIDHVTKRFGDYLAVADADFSIAPGEFFSMLGPSGCGKTTTLRMIAGFETPTEGAIRLEGADVSRTPPNKRNVNTVFQHYALFPHMTVWDNVAYGPRSKKLGKGEVRKRVDELLEIVRLTEFAERRPAQLSGGQQQRVALARALVNYPSALLLDEPLGALDLKLRHVMQFELKRIQREVGITFIYVTHDQEEALTMSDRIAVMNAGNVEQIGSPTEIYDRPATVFVASFIGQANLWAGRCTGRSNRDYVEIDVLGSTLKARPGETTIEPGGHATLMVRPERIRVTPGSQDAPTGDVACVRATVTDLTFQGPVVRLSLAAPDDSTVIAHVGPEQDLPLLRPGDDVYVSWAPEASLVLPGDDIPTTEDLEEMLDDS
What does the source list for B1?
IFNγ [2, 11]: 9.17 ± 1.51 ng/mL; IFNγ ([2]; Dose of GV protein used in vitro 10 μg/ml): 30.70 ± 4.48 ng/mL; IFNγ [2, 12]: 59.67 ± 14.88 ng/mL; CD40, CD80 and CD86 expression in dendritic cells, comparison with adjuvants [3]: significant up-regulation of CD40, CD80 and CD86; CD40, CD80 and CD86 expression on dendritic cells ([3]; 20 ug/ml, 48 hours, T cell-depleted PBMC): highest levels of expression; CD40 expression, fold increase in mean fluorescence intensity from control [3, 13]: 6.0 fold; CD80 expression, fold increase in mean fluorescence intensity from control [3, 13]: 4.5 fold; CD86 expression, fold increase in mean fluorescence intensity from control [3, 13]: 1.8 fold; % CD80-positive dendritic cells ([4]; control 9 ± 6.6): 24.7 ± 14.2%; % CD83-positive dendritic cells ([4]; control 15 ± 8): 35 ± 13.2%; Proliferation (cpm) ([5]; Dose of GV protein used in vitro 0.08 μg/ml): 7,393 ± 2,188 cpm; Proliferation (cpm) [5, 11]: 15,423 ± 2,858 cpm; Proliferation (cpm) [5, 12]: 35,598 ± 1,330 cpm; CD40 expression, fold increase in mean fluorescence intensity from control [6]: 2.3 fold; CD80 expression, fold increase in mean fluorescence intensity from control [6]: 1.5 fold; CD86 expression, fold increase in mean fluorescence intensity from control [6]: 0.7 fold; production of IL-1β, TNF-α, IL-12 and IFN-γ by PBMC [7]: stimulate the production of IL-1β, TNF-α and IL-12; also recorded: induced significant levels of the four cytokines examined; IL-1β production by PBMC relative to known adjuvants ([7]; GV-23 20 μg/ml): higher levels of IL-1β production being seen with GV-23 than with any of the known adjuvants; CD69 expression on NK cells, comparison with adjuvants [8]: induced CD69 expression on NK cells; percentage of αβT cells expressing CD69 ([8]; PBMC from normal donors, 20 ug/ml, 24 hours, control 3.8): 5.8%; percentage of NK cells expressing CD69 ([8]; PBMC from normal donors, 20 ug/ml, 24 hours, control 4.8): 46.8%; percentage of γδT cells expressing CD69 ([8]; PBMC from normal donors, 20 ug/ml, 24 hours, control 6.2): 10.0%; dendritic cell mixed lymphocyte reaction ((3H)-thymidine uptake) [9]: enhances dendritic cell mixed lymphocyte reaction; CD40 expression, fold increase in mean fluorescence intensity from control [10]: 1.2 fold; CD80 expression, fold increase in mean fluorescence intensity from control [10]: 1.1 fold; CD86 expression, fold increase in mean fluorescence intensity from control [10]: 1.4 fold

Source: US20030147861A1, “Compounds and methods for the modulation of immune responses” (Genesis Research and Development Corporation Limited, priority 2001, published 2003)
